Measured values published in the nanobody polyreactivity screen of Harvey et al. (2022).

experiment: yeast display, Sf9 membrane polyspecificity reagent, FACS + sequencing; frameworks hold sequencing errors
Procedure, shortened: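 In a synthetic yeast display library (Saccharomyces cerevisiae BJ5465), nanobody expression was induced with galactose for 36–48 hours. FACS gates were set low and high (top ~1%) using anti-HA fluorescence for expression and streptavidin fluorescence for binding of the Sf9 membrane reagent. Each polyreactivity label is drawn from the gate of origin.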

Which “polyreactivity (PSR sort gate)” value does the source give for “QVQLVESGGGLVQAGGSLRLSCAASGSTFVGYAMGWYRQAPGKERELVAAISERGGRTYYADSVKGRFTISRDNAKNTVYLQMNSLKPEDTAVYYCAAYGRYPRLYTYYYWGQGTQVTVSS” here?
The value was “high polyreactivity”.

Which “polyreactivity (PSR sort gate)” value does the source give for “QVQLVESGGGLVQAGGSLRLSCAASGSTFVGYAMGWYRQAPGKERELVAAISSSGSTNYADSVKGRFTISRDNAKNTVYLQMNSLKPEDTAVYYCAALYSYFWLIIDYGYWGQGTQVTVSS” here?
The value was “low polyreactivity”.

Which “polyreactivity (PSR sort gate)” value does the source give for “QVQLVESGGGLVQAGGSLRLSCAASGSTFVGYAMGWYRQAPGKERELVADIDSIGGSTYYADSVNGRFTISRDNAKNTVYLQMNSLKPEDTAVYYCAARRFDTALVLYDYWGQGTQVTVSS” here?
The value was “low polyreactivity”.

With “QVQLVESGGGLVQAGGSLRLSCAASGSTFVGYAMGWYRQAPGKEREVVAAISGSGTSTYYADSVKGRFTISRDNAKNTVYLQMNSLKPEDTAVYYCNSDPIFVYSSYNYWGQGTQVTVSS” as the sequence, how does the “polyreactivity (PSR sort gate)” value read?
The value was “low polyreactivity”.

For “QVQLVESGGGLVQAGGSLRLSCAASGSTFVGYAMGWYRQAPGKVRELVADITSGGGITYYADSVKGRFTISRDNAKNTVYLQMNSLKPDDTAVYYCAPGRPRPHWWSLDYYYWGQGTQVTVSS”, which “polyreactivity (PSR sort gate)” value is on record?
Its value is “low polyreactivity”.

For “QVQLVESGGGLVQAGGSLRLSCAASGSTFVGYVMGWYRQAPGKERELVAAITRSGTSTYYADSVKGRFTISRDNAKNTVYLQMNSLKPEDTAVYYCALRYVSSDYYYWGQGTQVTVSS”, which “polyreactivity (PSR sort gate)” value is on record?
Its value is “low polyreactivity”.

For “QVQLVESGGGLVQAGGSLRLSCAASGSTFVHYDMGWYRQAPGKERELVAGSTTGGSTNYADSVKGRFTISRDNAKNTVYLQMNSLKPEDTAVYYCNADSYPNLVPDYLYYWYEYWGQGTQVTVSS”, which “polyreactivity (PSR sort gate)” value is on record?
The value was “low polyreactivity”.

Which “polyreactivity (PSR sort gate)” value does the source give for “QVQLVESGGGLVQAGGSLRLSCAASGSTFVHYGMGWYRQAPGKERELVAAISYSGGSTSYADSVKGRFTISRDNAKNTVYLQMNSLKPEDTAVYYCATVRKRRYDYWGQGTQVTVSS” here?
The value was “low polyreactivity”.

Which “polyreactivity (PSR sort gate)” value does the source give for “QVQLVESGGGLVQAGGSLRLSCAASGSTFVIYAMGWYRQAPGKERELVASIRGRTGSTYYADSVKGRFTISRDNAKNTVYSQLNSLKPEDTAVYYCAAKPGYKSKMDYWGQGTQVTVSS” here?
The value was “high polyreactivity”.

Which “polyreactivity (PSR sort gate)” value does the source give for “QVQLVESGGGLVQAGGSLRLSCAASGSTFVIYDMGWYRQAPGKERELVAAISYSGGSTYYADSVKGRFTISRDNAKNTVYLQMNSLKPEDTAVYYCNAGVLVLLYAYLPSELEYWGQGTQVTVSS” here?
The value was “low polyreactivity”.

For “QVQLVESGGGLVQAGGSLRLSCAASGSTFVKNTMGWYRQAPGKERELVAAIRSSGGSTYYADSVKGRFTISRDNAKNTVYLQMNSLKPEDTAVYYCNKVLQASRSKYYYWGQGTQVTVSS”, which “polyreactivity (PSR sort gate)” value is on record?
The value was “high polyreactivity”.

Which “polyreactivity (PSR sort gate)” value does the source give for “QVQLVESGGGLVQAGGSLRLSCAASGSTFVLNAMGWDRQAPGKERELVAAITRDGRTYYADSVKGRFTISRDNAKNTVYLQMNSLKPEDTAVYYCARPARYSYGDGYWGQGTQVTVSS” here?
The value was “low polyreactivity”.

Which “polyreactivity (PSR sort gate)” value does the source give for “QVQLVESGGGLVQAGGSLRLSCAASGSTFVLNAMGWYRQAPGKERELVAAISSGGRTYYADSVKGRFTISRDNAKNTVYLQMNSLKPEDTAVYYCAAKPYRGGHRTLFGYWGQGTQVTVSS” here?
Its value is “high polyreactivity”.

For “QVQLVESGGGLVQAGGSLRLSCAASGSTFVLYAMGWYRQAPGKERELVATISSGGSTYYADSVKGRFTISRDNAKNTVYLQMNRLKPEDTAVYYCAASYSRFVDWIGDPGYDYWGQGTQVTVSS”, which “polyreactivity (PSR sort gate)” value is on record?
The value was “low polyreactivity”.

Which “polyreactivity (PSR sort gate)” value does the source give for “QVQLVESGGGLVQAGGSLRLSCAASGSTFVNNAMGWYRQAPGTERELVAAIRSSDGRTYYADSVKGRFTISRDNAKNTVYLQMNSLKPEDTAVYYCATAVGTKYRTRIFEYYYWGQGTQVTVSS” here?
Its value is “high polyreactivity”.

With “QVQLVESGGGLVQAGGSLRLSCAASGSTFVPNAMGWYRQAPGKEREFVAAIRVSGDNTYYADSVKGRFTISRDNAKNTVYLQMNSLKPEDTAVYYCAATGTVLGSVDYWGQGTQVTVSS” as the sequence, how does the “polyreactivity (PSR sort gate)” value read?
Its value is “low polyreactivity”.

Which “polyreactivity (PSR sort gate)” value does the source give for “QVQLVESGGGLVQAGGSLRLSCAASGSTFVRNAMGWYRQAPGKERELVAAISRSGGRTYYADSVKGRFTISRDNAKNTVYLQMNSLKPEDTAVYYCAADVYDAGVRYDYWGQGTQVTVSS” here?
Its value is “high polyreactivity”.

With “QVQLVESGGGLVQAGGSLRLSCAASGSTFVRNAMGWYRQAPGKERELVAGISTGDNTYYADSVKGRFTISRDNAKNTVNLQMNSLKPEDTAVYYCAARGLPSNYYYYVHGYIMDYWGQGTQVTVSS” as the sequence, how does the “polyreactivity (PSR sort gate)” value read?
The value was “low polyreactivity”.

Which “polyreactivity (PSR sort gate)” value does the source give for “QVQLVESGGGLVQAGGSLRLSCAASGSTFVRYAMGWYRQAPGKERELVAAITWSGGITYYADSVKGRFTISRDNAKNTVYLQMNSLKPEDTAVYYCNAEQKQYEKSYDYWGQGTQVTVSS” here?
The value was “low polyreactivity”.

For “QVQLVESGGGLVQAGGSLRLSCAASGSTFVSNAMGWSRQAPGKERELVAAITRRGGSTYYADSVKGRFTISRDNAKNTVYLQMNSLKPEDTAVYYCAAYSTLTPAYEYWGQGTQVTVSS”, which “polyreactivity (PSR sort gate)” value is on record?
Its value is “high polyreactivity”.

For “QVQLVESGGGLVQAGGSLRLSCAASGSTFVSNVMGWYRQAPGKERELVAAITSGGSTYYADSVKGRFTISRDNAKNTVYLQMNSLKPEDTAVYYCAAGGRWARWLFPSRYDYWGQGTQVTVSS”, which “polyreactivity (PSR sort gate)” value is on record?
Its value is “low polyreactivity”.
